Assay: yeast display, Sf9 membrane polyspecificity reagent, FACS + sequencing; frameworks hold sequencing errors
Summary of the method: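 Nanobodies came from a synthetic yeast display library in Saccharomyces cerevisiae BJ5465, induced with galactose for 36–48 hours and stained for 1 hour at 4 °C with 10% biotinylated, detergent-solubilized Sf9 membrane reagent. Cells were enriched on streptavidin microbeads and then FACS-sorted, with low and high (top ~1%) gates set on anti-HA fluorescence for expression and streptavidin fluorescence for reagent binding. Each polyreactivity label reflects the gate a clone came from. Genes were amplified by colony PCR, sequenced by MiSeq 2 × 250 and filtered by CDR length.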

Sequence | polyreactivity (PSR sort gate)
QVQLVESGGGLVQAGGSLRLSCAASGSTLPGFTMGWYRHAPGKERELVAAISWSGGSTSYADSVKGRFTISRDNAKNTVYLQMNSLKPEDTAVYYCDVDRFWRPVRSGSTYDYWGQGTQVTVSS | low polyreactivity
QVQLVESGGGLVQAGGSLRLSCAASGSTLPNNAMGWYRQAPGKERELVAAISSSGGSTYYADSVKGRFTISRDNAKNTVYLQMNSLKPEDTAVYYCAAVYSRGTYNYWGQGTQVTVSS | high polyreactivity
QVQLVESGGGLVQAGGSLRLSCAASGSTLQINGMGWYRQAPGKERELVAAISIGGDTNYADSVKGRFTISRDNAMNTVSLQMNSLKPEDTAVYYCAASGAYDEAYGEAFYYWGQGTQVIVSS | low polyreactivity
QVQLVESGGGLVQAGGSLRLSCAASGSTLQVNAMGWYRQATGKERELVDTISFSGGSTYYADSVKGRFTISRDNAKNTVYLQMNSLKPEDTAVYYCNADSFVSWYNQFWYQATYDYWGQGTQVTVSS | low polyreactivity
QVQLVESGGGLVQAGGSLRLSCAASGSTLRGNAMGRYRQAPGKVREFVAAISSSGGRTYYADSVKGRFTISRDNAKNTVNLQMTSLNPEDTAVYYCAAARYQYYFSSVPRAYYYWGQGTQVTVSS | high polyreactivity
QVQLVESGGGLVQAGGSLRLSCAASGSTLRGYAMGWYRQAPGKERELVAAITYISDSTYYADSVKGRFTISRDNAKNTVYLQMNSLKPEDTAVYYCNAYYDGDWRYTSQETGDHWGQGTQVTVSS | low polyreactivity
QVQLVESGGGLVQAGGSLRLSCAASGSTLRRNAMGWSRQAPGKERELVAAITGSRGSTFYADSVKGRFTISRDNAKNTVYLQMNSLKPEDTAVYYCAVYKWSTRVSQYRYDYWGQGTQVTVSS | high polyreactivity
QVQLVESGGGLVQAGGSLRLSCAASGSTLRRNAMGWYRQAPGKERELVAAISGTGGSTYYADSVKGRFTISRDNAKNTVYLQMYSLKPEDTAVYYCAATGWYYDYDYWGQGTQVTVSS | low polyreactivity
QVQLVESGGGLVQAGGSLRLSCAASGSTLRRNAMGWYRQAPGKERELVAAITGSRGSTFYADSVKGRFTISRDNAKNTVYLQMNSLKPEDTAVYYCAVYKWSTRVSQYRYDYWGQGTQVTVSS | high polyreactivity
QVQLVESGGGLVQAGGSLRLSCAASGSTLRSKAMGWYRQAQGKERELVASISSGGSTSYADSVKGRFTISRDNAKNTVYLQMNSLKPEDTAVYYCAADNSVGSYDYWGQGTQVTVSS | low polyreactivity
QVQLVESGGGLVQAGGSLRLSCAASGSTLRTYAMVWYRQAPGKERELVAAISFSTTSTYYADSVKGRFTISRDNATNTVYLQMNSLKPEDTAVYYCAATYQILTTSAHDSWGQGTQVTVSS | high polyreactivity
QVQLVESGGGLVQAGGSLRLSCAASGSTLSDYAMGWYRQAPGKERELVAAISTSGGRTYYADSVKGRFTISRDNAKNTVYLQMNSLKPEDTAVYYCAVDHYSSYEYWGQGTQVSVSS | low polyreactivity
QVQLVESGGGLVQAGGSLRLSCAASGSTLSGNAMGWYRQAPGKERELVAAISWNGGATYYADSVKGRFTISRDNAKNTVYLQMNSQKPEDTAVYYCAAEYIVTYEYWYFGYDYWGQGTQVTVSS | low polyreactivity
QVQLVESGGGLVQAGGSLRLSCAASGSTLSHYAMGWYRQAPGKERELVAAINSNGGSTYYADSVKGRFTISRDNAKNTVYLQMNSLKPEDTAVYYCKTYFRYFSFYGRPFDYWGQGTQVTVSS | high polyreactivity
QVQLVESGGGLVQAGGSLRLSCAASGSTLSQNAMGWYRQAPGKEREFVADISGSGDSTYYADSVKGRFTISRDNAKNTVYLQMNSLKPEDTAVYYCAARSLVQDHAYGYNYWGQGTQVTVSS | low polyreactivity
QVQLVESGGGLVQAGGSLRLSCAASGSTLSRYTMGWYRPEPGKERELVAAIRSSGGSTYYADSVKGRFTISRDNAKNTVYLQMNSLKPEDTAVYYCARTQQRTTERVHWIRYYYWGQGTQVTVSS | low polyreactivity
QVQLVESGGGLVQAGGSLRLSCAASGSTLSSYAMGWYRPAPGTERELGAVISGGGRTYYADSVKGRFTISRDNAKNTVYLQMNSLKPEDTAVYYCAAVTFSLGYRYYYWGQGTQVTVSS | high polyreactivity
QVQLVESGGGLVQAGGSLRLSCAASGSTLSYNAMGWYRPATGKERELVAAISWSDGGTYYADSVKGRFTISRDNAKNTVYLQMNSLKPEDTAVYYCNAESQWSYYFIYDYWGQGTQVTVSS | high polyreactivity
QVQLVESGGGLVQAGGSLRLSCAASGSTLSYYAMGWYRPAPGKDRELVAAISFSGGITYYADSVKGRFTISRDNAKNTVYLQMNSLKPEDTAVYYCNAEYQVYRAYVIWYDYWGQGTQVTVSS | high polyreactivity
QVQLVESGGGLVQAGGSLRLSCAASGSTLTDYAMGWYRQAPGKERELVAAITSDGDSTNYADSVKGRFTISRDNAKNTVYLQMNSLKPEDTAVYYCAAQGKYHYYVPAYEYWGQGTQVTVSS | low polyreactivity

Sequence | polyreactivity (PSR sort gate)
QVQLVESGGGLVQAGGSLRLSCAASGSTLTLYAMGWYRQARGKERELVAAIDWTGGSTYYADSVKGRFTISRDNAKNTVYLQMNSLKPEDTAVYYCAAHSFTEGYWYEYWGQGTQVTVSS | high polyreactivity
QVQLVESGGGLVQAGGSLRLSCAASGSTLTRNDIGWYRQAPGKERELVAAITFSGSDTYYADSVKGRFTISRDNAKNTVYLQMNILKPEDTAVYYCAAEYGGYSIYLFIGRYYWGQGTQVTVSS | low polyreactivity
QVQLVESGGGLVQAGGSLRLSCAASGSTLTSNAMGWYRQAPGKERELVAAIRSGGSTNYADSVKGRFTISRDNAKNTVYLQMNSLKPEDTAVYYCNKDVLWQGYGYSRVSYDYWGQGTQVTVSS | low polyreactivity
QVQLVESGGGLVQAGGSLRLSCAASGSTLVDYAMGWYRQAPGKERELVATISFRGGSTYYADSVKGRCTISRDNAKNTVYLQMNSLKPEDTAVYYCAAEYGPSLYYYYGHAAYAYGYWGQGTQVTVSS | low polyreactivity
QVQLVESGGGLVQAGGSLRLSCAASGSTLVDYAMGWYRQAPRKERELVATISFRGGSTYYADSVKGRFTISRDNAKNTVYLQMNSLKPEDTAVYYCAREYGDGYEYWGQGTQVTVSS | low polyreactivity
QVQLVESGGGLVQAGGSLRLSCAASGSTLVGNAMGWYRQAPRKERELVATISKRSGSTYYADSVKGRFTISRDNAKNTVYLQMNSLKPEDSAVYYCNADDVRRRAYRIGSYWGYDYWGQGTQVTVSS | low polyreactivity
QVQLVESGGGLVQAGGSLRLSCAASGSTLVGNTMGWYRQSPGKERELVAAITGVGSTNYADSVKGRFTISRDNAKNTVYLQMNSLKPEDTAVYYCAAQYSYTYIVSYLYDMDYWGQGTQVTVSS | low polyreactivity
QVQLVESGGGLVQAGGSLRLSCAASGSTLVIYAMGWYRQAPGKERELVAAISRGGTTYYADSVKGRFTISRDNAKNTVYLQMNSLKPEDTAVYYCAADARVKRYYFRKSGYWGQGTQVTVSS | high polyreactivity
QVQLVESGGGLVQAGGSLRLSCAASGSTLVNNAMGWDRQAPGKEREWVAAITFSGGTTYYADSVKGRFTISRDNAKNTVYLQMNSLKPEDTAVYYCAAEIWLEYVGYDYWGQGTQVTVSS | high polyreactivity
QVQLVESGGGLVQAGGSLRLSCAASGSTLVRYALGLSRQAPGKERELVAAISRSGSSTYYADSVKGRFTISRDIAKNTVYLQMNSLKPEDTAVYYCATDRYPTTPYYNYRFGYWGQGTQVTVSS | high polyreactivity
QVQLVESGGGLVQAGGSLRLSCAASGSTLVRYAMGWYRQAPGKEREFVAAISWTGGSTYYADSVKGRFTISRDYAKNTVYLQMNSLKPEDTAVYYCSAEYFRGPSYSYWGQGTQVTVSS | high polyreactivity
QVQLVESGGGLVQAGGSLRLSCAASGSTLVTYTMGWYRQAPGKERELVASISWRGGSTYYADSVKGRFTISRDNAKNTVYLQMNSLKPEDTAVYYCNAVYYLWDYDYWGQGTQVTVSS | low polyreactivity
QVQLVESGGGLVQAGGSLRLSCAASGSTLYAYAVGWYRQAPGKERELVAAIRTGGSTYYADSVKGRFTISRDNAKNTVYLQMNRLIPEDTAVYYCAADHGYQYGYWGQGTQVTVSS | low polyreactivity
QVQLVESGGGLVQAGGSLRLSCAASGSTLYRNAMGWYRQAPGKEREFVAAISWSGGSTYYADSVKGRFTISRDNAKNTVYLQMNSLKPEDTAVYYCNARGPTVYETHNYWGQGTQVTVSS | low polyreactivity
QVQLVESGGGLVQAGGSLRLSCAASGSTLYRYAMGWYRQAPGKERELVAAISSAGSTHYADSVKGRFTISRDNAKNNVYLQMKSLKPEDTAVYYCNAKGYLHRSRYDYWGQGTQVTVSS | high polyreactivity
QVQLVESGGGLVQAGGSLRLSCAASGSTLYSYAMGWYRQAPGKERELVAAIRRDSGRTYYADSVKGRFTISRDNAKNTVYLQMNSLKPEDTAVYYCAVRKQYSGRYYRAYDYWGQGTQVTVSS | high polyreactivity
QVQLVESGGGLVQAGGSLRLSCAASGSTMGRYAMGWYRQAPGKERELVASITWSDDSTYYADSVKGRFTISRDNAKNTVYLQMNSLKPEDTAVYYCAAAGNLYTYRFYYWGQGTQVTVSS | low polyreactivity
QVQLVESGGGLVQAGGSLRLSCAASGSTMLDYAMGWYRQAPGKERELVAAISWSGGSTRYADSVKGRFTISRDNAKNTVFLQMNSLKPEDTAVYYCAATGFSYRYFQTRDYWGQGTQVTVSS | high polyreactivity
QVQLVESGGGLVQAGGSLRLSCAASGSTRYWYAMGWYRQAPGKEREFFAGISIGGRTNYADSVKGRFTISRDNAKNTVYLQMNSLKPEDTAVYYCNAENTYVGSRYRPYNYWGQGTLVTVSS | low polyreactivity
QVQLVESGGGLVQAGGSLRLSCAASGSTSAWYAMGWYRQAPGKERQLVATISSRGGSTYYADSVKGRFTISRDNAKNTVYLQMNSLKPEDTAVYYCAARIGATYWVDWTHRAYDYWGQGTQVTVSS | high polyreactivity

From the nanobody polyreactivity screen of Harvey et al. (2022)
